Measured values from PMC12482432.

Columns and labels:
[1] = test system: T1, EefR (Escherichia coli ATCC 35218 (35218m, acrB-deficient)), ORF:f1625a7f; experiment: EMSA; conditions: EMSA in binding buffer (Beyotime kit, composition not given), 25 °C, 20 min; 6% native PAGE at 4 °C; salt and pH not stated
T1 sequence: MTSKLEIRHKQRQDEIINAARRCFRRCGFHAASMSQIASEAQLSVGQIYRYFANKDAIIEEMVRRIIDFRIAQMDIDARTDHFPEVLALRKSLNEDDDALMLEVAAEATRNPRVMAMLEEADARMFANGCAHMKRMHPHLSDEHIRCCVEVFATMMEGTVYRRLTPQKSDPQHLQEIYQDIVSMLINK

[2] = test system: T1, EefR (Escherichia coli ATCC 35218 (35218m, acrB-deficient)), ORF:f1625a7f; experiment: competition; conditions: EMSA in binding buffer (Beyotime kit, composition not given), 25 °C, 20 min; 6% native PAGE at 4 °C; salt and pH not stated

Row | Sequence | binding [1] | binding [2]
1 | CACAATCTCTTCATTATCAGAATATGCACCATGAATAAGATAAAAATACTTTCCATTACTTTGGAGAAACGTATAATCAGCAAAAATGAGAACGATCATCCTCACCAAGTGATAGGCCAGGAGACAGAA (double strand) [M1 (one base mutated, MT-1)] | no binding | 
2 | CACAATCTCTTCATTATCAGAATATGCACCATGAATAAGATAAAAATACTTTCCATTACTTTGGAGAAACGTATAATCAGCAAAAATGAGAACGATCATTCTCACCAAGTGATAGGCCAGGAGACAGAA (double strand) [P1 cold probe] |  | binds
3 | CACAATCTCTTCATTATCAGAATATGCACCATGAATAAGATAAAAATACTTTCCATTACTTTGGAGAAACGTATAATCAGCAAAAATGAGAACGATCATTCTCACCAAGTGATAGGCCAGGAGACAGAA (double strand) [P1 (129 bp eefR upstream probe)] | binds | 
4 | ACAGAATTAACCAATAGCGGGGGATATTAATCCCCCTTATTTCATTGCGAAATTCATTTCGCGATGCGGGTTCGTTATAACTGAATATCCCTGACATATCCTCATTAATTTTAATGAGGAGGGTATTTCTCACCCTGGAGAAAATA (double strand) [nonspecific probe (148 bp)] |  | no binding
